Earlier results, collected in patent publication US20240209043A1, “NON-ANTIBODY BINDING PEPTIDES AND THEIR ANALOGS DUAL-TARGETING TO PD-1 AND PD-L1, AND USES THEREOF” (ORAL SUBSIDIARY SUN YAT-SEN UNIVERSITY HOSPITAL, priority 2021, published 2024).

Molecular target: PD-1 (Homo sapiens, UniProt Q15116)
Conditions: background section; read-out: Kd-value of antibody drug targeting PD-1

Chain of PD-1 (Q15116 25-288): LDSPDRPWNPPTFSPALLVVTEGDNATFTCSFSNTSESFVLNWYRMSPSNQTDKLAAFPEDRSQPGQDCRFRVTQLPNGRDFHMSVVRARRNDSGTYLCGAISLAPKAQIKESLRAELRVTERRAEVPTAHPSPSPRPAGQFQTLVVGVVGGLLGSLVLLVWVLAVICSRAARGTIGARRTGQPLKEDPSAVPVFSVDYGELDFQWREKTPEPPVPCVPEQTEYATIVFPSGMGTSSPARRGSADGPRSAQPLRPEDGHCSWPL

- Kd: 3.31 nM
B1: Camrelizumab (antibody, chains of the INN, looked up, V domains shown)
VH: EVQLVESGGGLVQPGGSLRLSCAASGFTFSSYMMSWVRQAPGKGLEWVATISGGGANTYYPDSVKGRFTISRDNAKNSLYLQMNSLRAEDTAVYYCARQLYYFDYWGQGTTVTVSS
VL: DIQMTQSPSSLSASVGDRVTITCLASQTIGTWLTWYQQKPGKAPKLLIYTATSLADGVPSRFSGSGSGTDFTLTISSLQPEDFATYYCQQVYSIPWTFGGGTKVEIK
notes: marketed IgG4 antibody drug targeting PD-1
